Values of other authors as cited in patent US11040110B2, “Polypeptide complex comprising non-peptidyl polymer having three functional ends” (HANMI SCIENCE CO., LTD., priority 2008, dated 2021).

Conditions: Osborn et al. 2002

interferon alpha
serum half-life: 5 h
